The source of these data is patent publication US20030171559A1 (Amgen, published 2003).

Numbering of substitutions follows the chain as printed.

T1: G-CSF receptor (natural G-CSF receptor, found on hematopoietic cells) (mouse (bone marrow cells of Balb C …, UniProt P40223 26-837))
T1 sequence (looked up): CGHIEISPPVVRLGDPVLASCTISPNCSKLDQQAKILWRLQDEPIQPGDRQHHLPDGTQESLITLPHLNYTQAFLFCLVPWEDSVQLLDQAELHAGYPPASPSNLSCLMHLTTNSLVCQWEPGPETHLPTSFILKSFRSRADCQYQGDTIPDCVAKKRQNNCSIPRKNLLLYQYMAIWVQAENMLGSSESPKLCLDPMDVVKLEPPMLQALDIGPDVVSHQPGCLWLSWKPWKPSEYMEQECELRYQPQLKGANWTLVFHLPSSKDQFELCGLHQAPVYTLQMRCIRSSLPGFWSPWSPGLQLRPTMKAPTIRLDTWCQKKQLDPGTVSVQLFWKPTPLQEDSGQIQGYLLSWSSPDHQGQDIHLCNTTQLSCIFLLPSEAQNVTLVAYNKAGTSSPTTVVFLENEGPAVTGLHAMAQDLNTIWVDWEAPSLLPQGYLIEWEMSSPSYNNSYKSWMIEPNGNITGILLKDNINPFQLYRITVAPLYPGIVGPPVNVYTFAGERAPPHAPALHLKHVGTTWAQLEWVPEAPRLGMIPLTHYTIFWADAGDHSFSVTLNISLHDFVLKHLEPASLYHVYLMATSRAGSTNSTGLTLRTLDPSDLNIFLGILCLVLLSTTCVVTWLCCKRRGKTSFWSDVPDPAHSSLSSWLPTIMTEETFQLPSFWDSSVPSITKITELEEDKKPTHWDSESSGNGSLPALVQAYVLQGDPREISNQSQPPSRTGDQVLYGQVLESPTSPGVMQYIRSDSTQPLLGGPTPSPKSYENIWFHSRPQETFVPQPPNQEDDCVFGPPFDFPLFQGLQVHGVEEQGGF

B1: G-CSF analog Gln26->Ala26 (ligand)
chain: MTPLGPASSLPQSFLLKCLEQVRKIAGDGAALQEKLCATYKLCHPEELVLLGHSLGIPWAPLSSCPSQALQLAGCLSQLHSGLFLYQGLLQALEGISPELGPTLDTLQLDVADFATTIWQQMEELGMAPALQPTQGAMPAFASAFQRRAGGVLVASHLQSFLEVSYRVLRHLAQP
B2: G-CSF analog Arg23->Ala23 (ligand)
chain: B1 chain with R23A, A26Q
B3: G-CSF analog His44->Lys44 (ligand)
chain: B1 chain with A26Q, H44K
B4: G-CSF analog Gln121->Ala121 (ligand)
chain: B1 chain with A26Q, Q121A
B5: G-CSF analog Asp28->Ala28 (ligand)
chain: B1 chain with A26Q, D28A
B6: G-CSF analog Asp28->Ala28; Asp110->Ala110 (ligand)
chain: B1 chain with A26Q, D28A, D110A
B7: G-CSF analog Asp113->Ala113 (ligand)
chain: B1 chain with A26Q, D113A
B8: G-CSF analog Lys41->Ala41 (ligand)
chain: B1 chain with A26Q, K41A
B9: G-CSF analog Phe114->Val114, Thr117->Ala117 (ligand)
chain: B1 chain with A26Q, F114V, T117A
B10: G-CSF analog Ser13->Ala13 (ligand)
chain: B1 chain with S13A, A26Q
B11: G-CSF analog Asp110->Ala110 (ligand)
chain: B1 chain with A26Q, D110A
B12: G-CSF analog Thr117->Ala117 (ligand)
chain: B1 chain with A26Q, T117A
B13: G-CSF analog Gln21->Ala21 (ligand)
chain: B1 chain with Q21A, A26Q
B14: G-CSF analog Arg167->Ala167 (ligand)
chain: B1 chain with A26Q, R167A
B15: G-CSF analog Lys24->Ala24 (ligand)
chain: B1 chain with K24A, A26Q
B16: G-CSF analog Lys17->Ala17 (ligand)
chain: B1 chain with K17A, A26Q
B17: G-CSF analog His44->Ala44 (ligand)
chain: B1 chain with A26Q, H44A
B18: G-CSF analog Glu47->Ala47 (ligand)
chain: B1 chain with A26Q, E47A
B19: G-CSF analog Glu20->Ala20; Ser13->Gly13 (ligand)
chain: B1 chain with S13G, E20A, A26Q
B20: G-CSF analog His53->Ala53 (ligand)
chain: B1 chain with A26Q, H53A
B21: G-CSF analog Glu124->Ala124 (ligand)
chain: B1 chain with A26Q, E124A
B22: G-CSF analog Gln174->Ala174 (ligand)
chain: B1 chain with A26Q, Q174A
B23: G-CSF analog Met127,138->Leu127,138 (ligand)
chain: B1 chain with A26Q, M127L, M138L
B24: G-CSF analog Glu20->Ala20 (ligand)
chain: B1 chain with E20A, A26Q
B25: G-CSF analog Arg170->Ala170 (ligand)
chain: B1 chain with A26Q, R170A

The target in this assay is T1, G-CSF receptor (natural G-CSF receptor, …). The assay can be described thus: cell-based or functional assay.
As to B1, the “% Normal G-CSF Activity (3H-thymidine uptake, mouse bone marrow cells)” value (“% Normal G-CSF Activity” for short) was determined as 51%.

On to B2, for which the “% Normal G-CSF Activity” value turned out to be 31%.

Consider B3, for which the “% Normal G-CSF Activity” value was found to be 70%.

B4: the “% Normal G-CSF Activity” value is 100%.

For B5, the “% Normal G-CSF Activity” value amounted to 147%.

Regarding B6, the “% Normal G-CSF Activity” value turned out to be 20.6%.

On to B7, for which the “% Normal G-CSF Activity” value is 0%.

Consider B8, for which the “% Normal G-CSF Activity” value was 81%.

Take B9: the “% Normal G-CSF Activity” value amounted to 0%.

Take B10: the “% Normal G-CSF Activity” value worked out at 110%.

As for B11, the “% Normal G-CSF Activity” value amounted to 29%.

As to B12, the “% Normal G-CSF Activity” value worked out at 9.7%.

B13: the “% Normal G-CSF Activity” value was 9.6%.

With B14, the “% Normal G-CSF Activity” value was determined as 110%.

On to B15, for which the “% Normal G-CSF Activity” value was found to be 0%.

Take B16: the “% Normal G-CSF Activity” value was determined as 70%.

On to B17, for which the “% Normal G-CSF Activity” value was determined as 10.8%.

Turning to B18, the “% Normal G-CSF Activity” value was 0%.

Regarding B19, the “% Normal G-CSF Activity” value came to 0%.

As to B20, the “% Normal G-CSF Activity” value turned out to be 8.3%.

Regarding B21, the “% Normal G-CSF Activity” value worked out at 75%.

With B22, the “% Normal G-CSF Activity” value stood at 100%.

As for B23, the “% Normal G-CSF Activity” value is 98%.

Regarding B24, the “% Normal G-CSF Activity” value stood at 0%.

On to B25, for which the “% Normal G-CSF Activity” value stood at 100%.
